The results in this text go back to patent US20230227580A1, “ANTI-VWF ANTIBODIES AND USES THEREOF” (MONASH UNIVERSITY, priority 2020, published 2023).

In one experiment the target is T1, platelet GPIbα (Homo sapiens, UniProt P07359).
T1 construct: endogenous in cells; host or cells: platelets in citrated whole blood
In words: Platelet adhesion to collagen III under constant shear, whole blood perfusion with OS-1. To be noted: for Numbers of adherent platelets: 20 µg ml^-1 abciximab; for Platelet adhesion (relative, fluorescence intensity): collagen III, 1,500 s^-1. The experiment is classed as cell-based. The source says: (§1) In-house designed PDMS microfluidic chips (FIG. 1A) contained channels of 52 µm height with a footprint of 300 µm x 46 mm (used in FIG. 1) or 300 µm x 17 mm. Selected channels incorporated a semi-circular stenotic section of various lengths (600 µm, 1000 µm or 2000 µm diameter), creating 80% lumen reduction. Chips were manufactured as previously reported (Westein et al. Proceedings of the National Academy of Sciences of the United States of America. 2013 Jan 22;110(4):1357-62). The produced PDMS chips were sealed with cover slips by hydrophobic interaction and coated with collagen by perfusion of collagen solution followed by static incubation at RT for at least 1 hr. Channels were rinsed with PBS and blocked with 2% BSA. Wall shear rates of the input flow for these microchannels were approximated from volumetric flow rates by using the equation, γ = 6Q/wh2. Herein, γ is the wall shear rate (s^-1), Q the volumetric flow rate (mls^-1), w the channel with (cm) and h the channel height (cm).
(§2) Citrated whole blood was incubated with DiOC6 (0.5 µg ml^-1) (Sigma-Aldrich Co, St. Louis, MO, USA) and drawn through microfluidic channels by a programmable syringe pump (Legato 130, KD Scientific, USA). Time-lapse z-stack images of platelet deposition were captured in multiple track, resonant scanning mode, using a Nikon A1R confocal microscope system. Platelet deposition was recorded over time (2 frames per minute) for up to 20 minutes and quantified in ImageJ using a Z-projection of the acquired signal.
For experiments measuring rolling velocities, anti αllbβ3 antibody (abciximab; 20 µg ml^-1)-treated whole blood containing 0.5 µg ml^-1 DiOC6 was drawn over a collagen type III-coated surface. Where indicated, blood was incubated with 30 µM aspirin (Sigma Aldrich, USA) and 300 µM 2-MeSAMP (Sigma-Aldrich Co, St. Louis, MO, USA) prior to blood perfusion. 10 second video clips of rolling platelets were recorded in the green fluorescent channel using an Olympus IX81 microscope system. Platelet rolling velocities were calculated using Diatrack v3.04 large scale particle tracking software (Vallotton et al. Microsc Microanal. 2013 Apr;19(2):451-60).

Experiment [1] deals with thrombus formation / platelet deposition. In words: Thrombus formation on collagen type I in stenosis channels (SRG versus constant shear). It is filed as cell-based, human. To be noted: 15 minutes of blood flow; for Platelet deposition: 0.1 µM OS-1.
Description: as §1, §2

The target of the next experiment is VWF (Homo sapiens, UniProt P04275). In words: VWF binding in the presence or absence of ristocetin (FIG. 7).

Where no end group is shown, it is not given here.

On to “OS-1: cyclic peptide, allosteric inhibitor of GPlbα/VWF interactions with sequence CTERMALHNLC, obtained from Auspep (also: cyclic peptide, ring not described) [reference compound]”, for which the “Numbers of adherent platelets” value in the experiment with platelet GPIbα (3 µM OS-1, constant shear 2,000 s^-1) is given as 11±4 platelets per field; with platelet GPIbα (3 µM OS-1, constant shear above 500 s^-1), 53±4 platelets per field. The “Platelet adhesion (relative, fluorescence intensity)” value in the experiment with platelet GPIbα (3 µM OS-1) was “completely abolished”; with platelet GPIbα (increasing concentrations of OS-1), “concentration dependently reduced”. Moreover, the Platelet deposition entry in experiment [1] (constant shear) and in experiment [1] (shear gradient conditions) was “inhibited” in each case. The Thrombus formation result was “reduced thrombus formation” in experiment [1] (2000 s^-1 constant shear), “inhibited thrombus formation” in experiment [1] (SRGs (187-1,500 s^-1)) and “inhibited thrombus formation” in experiment [1] (SRGs (300-2,000 s^-1)).

On to “Cablivi: commercially available antibody (Cablivi®, Sanofi) binding VWF [reference compound]”, for which, in the experiment with VWF, the “Mechanism of VWF binding (dependence on conformation)” value was “conformation independent”.
